Reference: article PMC7137805

How the values were obtained:
[1] = biological target: Recombinant human laminin‐332 (human) (UniProt Q16787); assay: SPR; BIAcore 3000, 25 °C; laminin-332 immobilised on a CM5 chip (approx. 5000 RU); vWFA2 as analyte, 2.5-420 µM; running buffer 10 mM sodium phosphate pH 7.4, 150 mM NaCl; binding isotherms
[2] = biological target: Recombinant human laminin‐332 (human) (UniProt Q16787); assay: SPR; as a1, with MgCl2 added to the running buffer to 2.5 mM

untagged vWFA2 (vWFA2 lacking any tag residues) of murine type VII collagen (from UniProt Q63870 1048-1238) (domain or fragment)
Kd [1]: 440 µM

vWFA2 subdomain (amino acids 1048–1238) of murine type VII collagen, purified by intein cleavage (from UniProt Q63870 1048-1238) (domain or fragment)
Kd [2]: 1100 µM
Kd [1]: 810 µM
